Measured values published in patent US20020182673A1.
pKd: −log10 of the molar value.

Tests used:
[1] = biological target: recombinant IL-17E (baculovirus, His-tag removed by thrombin) (human); experiment: SPR (BIAcore 1000), IL-17E immobilised, IL-17RH1 ECD in solution, 1:1 model
[2] = biological target: IL-17RH1 (PRO5801) ECD (residues 1-275), baculovirus, His-tag removed (human); experiment: SPR (BIAcore 1000), IL-17RH1 ECD immobilised, IL-17E in solution, 1:1 model

| Substance | pKd [1] | koff [1] | kon [1] | pKd [2] | koff [2] | kon [2] |
| --- | --- | --- | --- | --- | --- | --- |
| IL-17RH1 (PRO5801) ECD (residues 1-275), baculovirus, His-tag removed (receptor) | 8.96 | 0.0007 s⁻¹ | 670000 M⁻¹ s⁻¹ | – | – | – |
| recombinant IL-17E (baculovirus, His-tag removed by thrombin) (ligand) | – | – | – | 8.85 | 0.00062 s⁻¹ | 430000 M⁻¹ s⁻¹ |
